The values below come from the Human Domainome abundance scans (Beltran et al. 2025).

± gives the uncertainty stated by the source.

The labels stand for the following.
B1: Protein maelstrom homolog, residues 3 to 71; numbered along this chain, Q96JY0 (parent)
chain: NRKASRNAYYFFVQEKIPELRRRGLPVARVADAIPYCSSDWALLREEEKEKYAEMAREWRAAQGKDPGP

Variants of B1 are the subject of the series. Put plainly: abundance fitness (aPCA) (normalised: wild type 0, dead -1); higher = more abundant; growth selection in yeast, the domain comes from the species named. The settings on record: Homo sapiens.
In the case of NRKASRNAYYFFVQEKIPELRRRGLPVARVADAIPYCSSDWALLREEEKEKYAEMAREWRAAQGKLPGP [D66L], the abundance fitness was found to be 0.047 ± 0.049. To NRKASRNAYYFFVQEKIPELRRRGLPVARVADAIPYCSSDWALLREEEKEKYAEMAREWRAAQGKWPGP [D66W] belongs -0.155 ± 0.092; to NRKASRNAYYFFVQEKIPELRRRGLPVARVADAIPYCSSDWALLREEEKEKYAEMAREWRAAQGKVPGP [D66V], 0.018 ± 0.049; to NRKASRNAYYFFVQEKIPELRRRGLPVARVADAIPYCSSDWALLREEEKEKYAEMAREWRAAQGKKPGP [D66K], 0.171 ± 0.067. To NRKASRNAYYFFVQEKIPELRRRGLPVARVADAIPYCSSDWALLREEEKEKYAEMAREWRAAQGKMPGP [D66M] belongs 0.051 ± 0.072; to NRKASRNAYYFFVQEKIPELRRRGLPVARVADAIPYCSSDWALLREEEKEKYAEMAREWRAAQGKFPGP [D66F], -0.116 ± 0.073; to NRKASRNAYYFFVQEKIPELRRRGLPVARVADAIPYCSSDWALLREEEKEKYAEMAREWRAAQGKCPGP [D66C], -0.241 ± 0.11.

Regarding NRKASRNAYYFFVQEKIPELRRRGLPVARVADAIPYCSSDWALLREEEKEKYAEMAREWRAAQGKHPGP [D66H], the abundance fitness turned out to be 0.122 ± 0.097. To NRKASRNAYYFFVQEKIPELRRRGLPVARVADAIPYCSSDWALLREEEKEKYAEMAREWRAAQGKPPGP [D66P] belongs -0.052 ± 0.17; to NRKASRNAYYFFVQEKIPELRRRGLPVARVADAIPYCSSDWALLREEEKEKYAEMAREWRAAQGKRPGP [D66R], -0.02 ± 0.061; to NRKASRNAYYFFVQEKIPELRRRGLPVARVADAIPYCSSDWALLREEEKEKYAEMAREWRAAQGKYPGP [D66Y], -0.095 ± 0.072. The value for NRKASRNAYYFFVQEKIPELRRRGLPVARVADAIPYCSSDWALLREEEKEKYAEMAREWRAAQGKIPGP [D66I] was 0.024 ± 0.094; that for NRKASRNAYYFFVQEKIPELRRRGLPVARVADAIPYCSSDWALLREEEKEKYAEMAREWRAAQGKEPGP [D66E] was -0.003 ± 0.06; that for NRKASRNAYYFFVQEKIPELRRRGLPVARVADAIPYCSSDWALLREEEKEKYAEMAREWRAAQGKTPGP [D66T] was 0.173 ± 0.12. NRKASRNAYYFFVQEKIPELRRRGLPVARVADAIPYCSSDWALLREEEKEKYAEMAREWRAAQGKSPGP [D66S]: the abundance fitness is -0.042 ± 0.065. The value for NRKASRNAYYFFVQEKIPELRRRGLPVARVADAIPYCSSDWALLREEEKEKYAEMAREWRAAQGKQPGP [D66Q] was 0.07 ± 0.07; that for NRKASRNAYYFFVQEKIPELRRRGLPVARVADAIPYCSSDWALLREEEKEKYAEMAREWRAAQGKAPGP [D66A] was -0.148 ± 0.071.

NRKASRNAYYFFVQEKIPELRRRGLPVARVADAIPYCSSDWALLREEEKEKYAEMAREWRAAQGKDHGP [P67H]: the abundance fitness was 0.024 ± 0.11. In the case of NRKASRNAYYFFVQEKIPELRRRGLPVARVADAIPYCSSDWALLREEEKEKYAEMAREWRAAQGKDAGP [P67A], the abundance fitness was -0.098 ± 0.069. To NRKASRNAYYFFVQEKIPELRRRGLPVARVADAIPYCSSDWALLREEEKEKYAEMAREWRAAQGKDRGP [P67R] belongs 0.118 ± 0.047. To NRKASRNAYYFFVQEKIPELRRRGLPVARVADAIPYCSSDWALLREEEKEKYAEMAREWRAAQGKDNGP [P67N] belongs -0.105 ± 0.23; to NRKASRNAYYFFVQEKIPELRRRGLPVARVADAIPYCSSDWALLREEEKEKYAEMAREWRAAQGKDDGP [P67D], -0.43 ± 0.18.

As for NRKASRNAYYFFVQEKIPELRRRGLPVARVADAIPYCSSDWALLREEEKEKYAEMAREWRAAQGKDKGP [P67K], the abundance fitness is -0.069 ± 0.14. To NRKASRNAYYFFVQEKIPELRRRGLPVARVADAIPYCSSDWALLREEEKEKYAEMAREWRAAQGKDGGP [P67G] belongs 0.009 ± 0.048; to NRKASRNAYYFFVQEKIPELRRRGLPVARVADAIPYCSSDWALLREEEKEKYAEMAREWRAAQGKDWGP [P67W], -0.263 ± 0.07; to NRKASRNAYYFFVQEKIPELRRRGLPVARVADAIPYCSSDWALLREEEKEKYAEMAREWRAAQGKDCGP [P67C], -0.417 ± 0.18. The value for NRKASRNAYYFFVQEKIPELRRRGLPVARVADAIPYCSSDWALLREEEKEKYAEMAREWRAAQGKDLGP [P67L] was 0.022 ± 0.056; that for NRKASRNAYYFFVQEKIPELRRRGLPVARVADAIPYCSSDWALLREEEKEKYAEMAREWRAAQGKDVGP [P67V] was 0.091 ± 0.073. The value for NRKASRNAYYFFVQEKIPELRRRGLPVARVADAIPYCSSDWALLREEEKEKYAEMAREWRAAQGKDSGP [P67S] was -0.067 ± 0.065; that for NRKASRNAYYFFVQEKIPELRRRGLPVARVADAIPYCSSDWALLREEEKEKYAEMAREWRAAQGKDMGP [P67M] was -0.12 ± 0.09. Take NRKASRNAYYFFVQEKIPELRRRGLPVARVADAIPYCSSDWALLREEEKEKYAEMAREWRAAQGKDTGP [P67T]: the abundance fitness is -0.155 ± 0.078. The value for NRKASRNAYYFFVQEKIPELRRRGLPVARVADAIPYCSSDWALLREEEKEKYAEMAREWRAAQGKDFGP [P67F] was -0.101 ± 0.083; that for NRKASRNAYYFFVQEKIPELRRRGLPVARVADAIPYCSSDWALLREEEKEKYAEMAREWRAAQGKDEGP [P67E] was -0.046 ± 0.084; that for NRKASRNAYYFFVQEKIPELRRRGLPVARVADAIPYCSSDWALLREEEKEKYAEMAREWRAAQGYDPGP [K65Y] was -0.109 ± 0.17. Turning to NRKASRNAYYFFVQEKIPELRRRGLPVARVADAIPYCSSDWALLREEEKEKYAEMAREWRAAQGMDPGP [K65M], the abundance fitness was -0.497 ± 0.14. NRKASRNAYYFFVQEKIPELRRRGLPVARVADAIPYCSSDWALLREEEKEKYAEMAREWRAAQGLDPGP [K65L]: the abundance fitness is -0.175 ± 0.068. To NRKASRNAYYFFVQEKIPELRRRGLPVARVADAIPYCSSDWALLREEEKEKYAEMAREWRAAQGPDPGP [K65P] belongs -0.134 ± 0.092.

For NRKASRNAYYFFVQEKIPELRRRGLPVARVADAIPYCSSDWALLREEEKEKYAEMAREWRAAQGTDPGP [K65T], the abundance fitness was -0.26 ± 0.079. To NRKASRNAYYFFVQEKIPELRRRGLPVARVADAIPYCSSDWALLREEEKEKYAEMAREWRAAQGGDPGP [K65G] belongs -0.048 ± 0.046.
